Laboratory results reported in the supplement of paper PMC10567573.

B1: RHOBTB2 (parent)
chain: NQEITKAFHVRRTNRVKECLAKGT
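Also: lentivirally expressed fusions sorted by FACS into six bins by GFP to DsRed ratio, PSI derived from sequencing read proportions per bin multiplied by bin number.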

Variants of: B1
Assay: protein stability index of a GFP-peptide fusion (GPS, HEK-293T) (PSI 1-6); higher = more stable
Settings: c terminus: a fixed tail appended
Variant MQEITKAFHVRRTNRVKECLAKGT has a protein stability index of 2.66.
Variant FQEITKAFHVRRTNRVKECLAKGT has a protein stability index of 2.07.
With YQEITKAFHVRRTNRVKECLAKGT the protein stability index was 2.26.
With CQEITKAFHVRRTNRVKECLAKGT the protein stability index was 2.25.
In the case of KQEITKAFHVRRTNRVKECLAKGT, the protein stability index is reported as 3.49.
Variant GQEITKAFHVRRTNRVKECLAKGT has a protein stability index of 2.88.
For NQEITKAFHVRRTNRVKECLQKGT, the protein stability index was 2.65.
With NQEITKAFHVRRTNRVKECLSKGT the protein stability index was 2.48.
NQEITKAFHVRRTNRVKECLIKGT gave a protein stability index of 2.27.
Variant NQEITKAFHVRRTNRVKECLNKGT has a protein stability index of 3.42.
For NQEITKAFHVRRTNRVKECLVKGT, the protein stability index was 2.8.
NQEITKAFHVRRTNRVKECLDKGT gave a protein stability index of 3.83.
NQEITKAFHVRRTNWVKECLAKGT gave a protein stability index of 2.58.
With NQEITKAFHVRRTNKVKECLAKGT the protein stability index was 3.29.
Work on NQEITKAFHVRRTNGVKECLAKGT yielded a protein stability index of 2.9.
NQEITKAFHVRRTNPVKECLAKGT gave a protein stability index of 3.29.
NQEITKAFHVRRTNQVKECLAKGT gave a protein stability index of 3.87.
Variant NQEITKAFHVRRTNDVKECLAKGT has a protein stability index of 4.21.
NQEITKAFHVRRTNIVKECLAKGT gave a protein stability index of 3.12.
NQEITKAFHVRRTNSVKECLAKGT showed a protein stability index of 3.54.
For NQEITKAFHVRRTNRVKECLAFGT, the protein stability index was 1.88.
Variant NQEITKAFHVRRTNRVKECLAVGT has a protein stability index of 2.3.
NQEITKAFHVRRTNRVKECLAEGT gave a protein stability index of 3.87.
Variant NQEITKAFHVRRTNRVKECLAHGT has a protein stability index of 3.03.
With NQEITKAFHVRRTNRVKECLALGT the protein stability index was 2.61.
NQEITKALHVRRTNRVKECLAKGT gave a protein stability index of 3.77.
For NQEITKAHHVRRTNRVKECLAKGT, the protein stability index was 4.73.
For NQEITKASHVRRTNRVKECLAKGT, the protein stability index was 4.87.
With NQEITKANHVRRTNRVKECLAKGT the protein stability index was 4.39.
Work on NQEITKAEHVRRTNRVKECLAKGT yielded a protein stability index of 4.62.
With NQEITKACHVRRTNRVKECLAKGT the protein stability index was 4.96.
For NQEITKAVHVRRTNRVKECLAKGT, the protein stability index was 4.46.
Work on NQEITKAFHVRRTNRVKECLAKKT yielded a protein stability index of 4.17.
For NQEITKAFHVRRTNRVKECLAKNT, the protein stability index was 3.02.
For NQEITKAFHVRRTNRVKECLAKST, the protein stability index was 3.11.
Variant NQEITKAFHVRRTNRVKECLAKCT has a protein stability index of 2.67.
With NQEITKAFHVRRTNRVKECLAKRT the protein stability index was 2.82.
NQEITKAFHVRRTNRVKECLAKDT gave a protein stability index of 2.73.
In the case of NQEITKAFHVRRTNRVKECLAKTT, the protein stability index is reported as 2.66.
NQEITKAFHVRRTNRVKECLAKVT showed a protein stability index of 1.75.
Variant NQEITKAFHVRRTNRVKECLAKHT has a protein stability index of 2.84.
In the case of NIEITKAFHVRRTNRVKECLAKGT, the protein stability index is reported as 2.6.
Work on NEEITKAFHVRRTNRVKECLAKGT yielded a protein stability index of 4.05.
For NVEITKAFHVRRTNRVKECLAKGT, the protein stability index was 3.5.
For NPEITKAFHVRRTNRVKECLAKGT, the protein stability index was 3.4.
For NQEIPKAFHVRRTNRVKECLAKGT, the protein stability index was 3.88.
For NQEIDKAFHVRRTNRVKECLAKGT, the protein stability index was 3.84.
With NQEILKAFHVRRTNRVKECLAKGT the protein stability index was 2.86.
Work on NQEIMKAFHVRRTNRVKECLAKGT yielded a protein stability index of 3.42.
Variant NQEINKAFHVRRTNRVKECLAKGT has a protein stability index of 3.22.
Work on NQEIQKAFHVRRTNRVKECLAKGT yielded a protein stability index of 4.06.
With NQEIFKAFHVRRTNRVKECLAKGT the protein stability index was 2.67.
NQEIWKAFHVRRTNRVKECLAKGT showed a protein stability index of 3.
NQEIEKAFHVRRTNRVKECLAKGT showed a protein stability index of 4.16.
For NQEIAKAFHVRRTNRVKECLAKGT, the protein stability index was 3.75.
In the case of NQEITKAFHVRRTNRVMECLAKGT, the protein stability index is reported as 2.54.
In the case of NQEITKAFHVRRTNRVCECLAKGT, the protein stability index is reported as 2.22.
For NQEITKAFHVRRTNRVNECLAKGT, the protein stability index was 2.92.
NQEITKAFHVRRTNRVEECLAKGT gave a protein stability index of 3.04.
NQEITKAFHVRRTNRVLECLAKGT showed a protein stability index of 3.12.
Work on NQEITKAFHVRRTNRVSECLAKGT yielded a protein stability index of 3.63.
In the case of NQEITKAFHVRRTNRVIECLAKGT, the protein stability index is reported as 1.75.
Variant NQEITKAFHVRRTNRVVECLAKGT has a protein stability index of 2.26.
NQEITKAFHVRRTNRVGECLAKGT showed a protein stability index of 2.74.
Variant NQEITKAFHVRRTNRVPECLAKGT has a protein stability index of 2.4.
In the case of NQEITKAFHVRRTNRVHECLAKGT, the protein stability index is reported as 2.94.
With NQEITKAFHVRRGNRVKECLAKGT the protein stability index was 2.49.
NQEITKAFHVRRDNRVKECLAKGT gave a protein stability index of 4.09.
For NQEITKAFHVRRANRVKECLAKGT, the protein stability index was 3.72.
For NQEITKAFHVRRENRVKECLAKGT, the protein stability index was 3.97.
NQEITKAFHVARTNRVKECLAKGT showed a protein stability index of 4.09.
Variant NQEITKAFHVERTNRVKECLAKGT has a protein stability index of 4.25.
NQEITKAFHVLRTNRVKECLAKGT showed a protein stability index of 3.21.
In the case of NQEITKAFHVHRTNRVKECLAKGT, the protein stability index is reported as 3.94.
For NQEITKAFHVQRTNRVKECLAKGT, the protein stability index was 4.43.
Variant NQEITKAFHVVRTNRVKECLAKGT has a protein stability index of 2.22.
Variant NQEITKAFHVPRTNRVKECLAKGT has a protein stability index of 4.36.
Work on NQEITKAFHVTRTNRVKECLAKGT yielded a protein stability index of 3.82.
In the case of NQEITKAFHVMRTNRVKECLAKGT, the protein stability index is reported as 2.81.
NQEITKAFHVGRTNRVKECLAKGT showed a protein stability index of 4.05.
With NQEITKAFHVRRTNRVKEHLAKGT the protein stability index was 2.59.
NQEITKAFHVRRTNRVKEELAKGT showed a protein stability index of 3.45.
In the case of NQEITKAFHVRRTNRVKENLAKGT, the protein stability index is reported as 3.27.
NQEITKAFHVRRTNRVKEQLAKGT gave a protein stability index of 3.35.
Variant NQEITKAFHVRRTNRVKEGLAKGT has a protein stability index of 3.41.
For NQEITKAFHVRRTNRVKEALAKGT, the protein stability index was 3.42.
For NQEITKAFHVRRTNRVKEILAKGT, the protein stability index was 2.5.
Variant NQEITKAFHVRRTNRVKEYLAKGT has a protein stability index of 2.33.
Variant NQEITKAFHVRRTNRVKEFLAKGT has a protein stability index of 2.77.
NQEITKAFHVRRTNRVKESLAKGT gave a protein stability index of 2.81.
Work on NQEITKRFHVRRTNRVKECLAKGT yielded a protein stability index of 3.76.
NQEITKNFHVRRTNRVKECLAKGT showed a protein stability index of 3.2.
Work on NQEITKTFHVRRTNRVKECLAKGT yielded a protein stability index of 3.11.
In the case of NQEITKCFHVRRTNRVKECLAKGT, the protein stability index is reported as 2.94.
